Reference: publication PMC6736547

Target: Pcdh γB6 ectodomain, γB6_(EC1–6), wild type
Test: cryo-EM structure

- stoichiometry N: 4
Substance: Pcdh γB6 ectodomain, γB6_(EC1–6), wild type (domain or fragment)
